One block for each binder: values may come before it.
Assays:
[1] = target: microtubules polymerized from porcine brain tubulin (taxol-stabilized) (porcine) (UniProt P02550); experiment: single-molecule TIRF microscopy; rhodamine-labelled taxol-stabilized microtubules held on the surface by anti-beta-tubulin; eGFP-DRG1 at 0.08, 0.4, 4, 40 nM in BRB80 assay buffer with 1 mM GTP, 25 °C; residence times from kymographs, not corrected for bleaching
[2] = target: microtubules polymerized from porcine brain tubulin (taxol-stabilized) (porcine) (UniProt P02550); experiment: co-sedimentation; 1 µM recombinant DRG1 with different concentrations of taxol-stabilized microtubules; Coomassie quantified with ImageJ, binding curve fitted

- residence time, diffusive population, 4 nM eGFP-DRG1 [1]: 2.2 s
- residence time, diffusive population, 40 nM eGFP-DRG1 [1]: 2.6 s
- residence time, immobile fraction, 0.08 nM eGFP-DRG1 [1]: 12 s
- residence time, immobile fraction, 0.4 nM eGFP-DRG1 [1]: 12.4 s
- residence time, immobile fraction, 4 nM eGFP-DRG1 [1]: 11.1 s
- residence time, immobile fraction, 40 nM eGFP-DRG1 [1]: 5.4 s
B1: eGFP-DRG1 (Xenopus laevis DRG1 with N-terminal eGFP) (natural protein)
chain: MSGTLARIAEIEAEMARTQKNKATAYHLGLLKARLAKLRRELITPKGGGGGGPGEGFDVAKTGDARIGFVGFPSVGKSTLLSNLAGVYSEVAAYEFTTLTTVPGVVRYKGAKIQLLDLPGIIEGAKDGKGRGRQVIAVARTCNLILIVLDVLKPLGHKKIIENELEGFGIRLNKQPPNIGFKKKDKGGINLTATCAQSELDNDTVKSILAEYKIHNADITLRSDATADDLIDVVEGNRVYIPCIYVLNKIDQISIEELDIIYKVPHCVPISAHHRWNFDDLLEKIWDYLQLVRIYTKPKGQLPDYTSPVVLPCSHTAAEDFCTKIHKNLIKEFKYALVWGSSVKHNPQKVGKDHVLEDEDVIQIVKK

- Kd [2]: 470 nM
B2: recombinant Xenopus laevis Developmentally regulated GTP binding protein 1 (DRG1), full length (natural protein)
chain: B1 chain
